Measurements taken from patent US20230250168A1 (MABWELL SHANGHAI BIOSCIENCE, published 2023).
Residue numbers refer to the chain shown, from its start.

B1: 16k15 (16K15-hz22) scfv, as CAR on T cells (scFv, not shown: small tags and cut ends)
scFv: EVQLVESGGGLVQPGGSLRLSCAGSGITLSTYAMSWVRQAPGKGLEWVSSIISGGITYYLDSVKGRFTISRDNAKNTLYLQMSSLRAEDTAVYYCARKYHGNALDYWGQGTLVTVSSGSTSGGGSGGGSGGGGSSDIVMTQSPDSLAVSLGERATINCKSSQSLLSSGNQRNYLTWYQQKPGQPPKKLIYWASTRESGVPDRFSGSGSGTDFTLTISSLQAEDLAVYYCQNNYFYPLTFGQGTKLEIK
B2: 8K13 (8K13-hz24) scfv, as CAR on T cells (scFv, not shown: small tags and cut ends)
scFv: QVQLVQSGAEVKKPGSSVKVSCKASGYAFSNYWMNWVRQAPGQGLEWMGQIYPGSGDTKYSGKFQSRVTITADKSTNTAYMELSSLRSEDTAVYYCARFYYGNVMDYWGQGTLVTVSSGSTSGGGSGGGSGGGGSSDIVLTQSPDSLAVSLGERATINCKSSQTLLSGGNQKNYLTWYQQKPGQPPKLLIYWASTRESGVPDRFSGSGSGTDFTLTISSLQAEDLAVYYCQQGYSYPLTFGQGTKLEIK
B3: 52E22 (52E22-hz12) scfv, as CAR on T cells (scFv, not shown: small tags and cut ends)
scFv: QIQLVQSGSELKKPGASVKVSCKASGYTLTNYGMNWVRQAPGQGLEWMGWIRPNTGEPTYAEDFKGRFVFSLDTSVATAYLQITSLKAEDTAVYYCARLYRGNTLDNWGQGTLVTVSSGSTSGGGSGGGSGGGGSSDIVMTQSPDSLAVSLGERATINCKSSQNLLSSGNQRNYLTWYQQKPGQPPKLLIYWASTRESGVPDRFSGSGSGTDFTLTISSLQAEDLAVYYCQQGYSFPFTFGQGTKLEIK
B4: 8K13-hz24 (antibody, human IgG1, V domains shown)
VH: QVQLVQSGAEVKKPGSSVKVSCKASGYAFSNYWMNWVRQAPGQGLEWMGQIYPGSGDTKYSGKFQSRVTITADKSTNTAYMELSSLRSEDTAVYYCARFYYGNVMDYWGQGTLVTVSS
VL: DIVLTQSPDSLAVSLGERATINCKSSQTLLSGGNQKNYLTWYQQKPGQPPKLLIYWASTRESGVPDRFSGSGSGTDFTLTISSLQAEDLAVYYCQQGYSYPLTFGQGTKLEIK
notes: Humanized; also called 8K13-hz24 IgG; 8K13-24 IgG
B5: 16K15-hz22 (antibody, human IgG1, V domains shown)
VH: EVQLVESGGGLVQPGGSLRLSCAGSGITLSTYAMSWVRQAPGKGLEWVSSIISGGITYYLDSVKGRFTISRDNAKNTLYLQMSSLRAEDTAVYYCARKYHGNALDYWGQGTLVTVSS
VL: B4 VL with L4M, T28S, G32S, K36R, L52K, Q96N, G97N, S99F
notes: Humanized; also called 16K15-hz22 IgG; 16K15-22 IgG
B6: 16K15-hz00 (antibody, human IgG1, V domains shown)
VH: B5 VH with G24A, T77S, S83N
VL: B4 VL with L4M, T28S, S31N, G32S, K36R, L89V, Q96N, G97N, S99F
notes: Humanized (direct CDR graft)
B7: 16K15-xiIgG (antibody, V domains shown)
VH: EVMLVESGGGLVRPGGSLKLSCAGSGITLSTYAMSWVRQTPERRLEWVASIISGGITYYLDSVKGRFTISRDNARNILYLQMSSLRSEDTAIYYCARKYHGNALDYWGQGTSVTVSL
VL: DIVMTQSPSSLPVTAGETVTMRCKSSQSLLNSGNQRNYLTWYQRKPGQPPKKLIYWASTRESGVPDRFTGSGSGTDFTLTISGVQAEDLAVYYCQNNYFYPLTFGAGTKLELKR
notes: Murine variable regions on human IgG1 / kappa constant regions; also called 16K15 chimeric antibody
B8: 16K15-hz11 (antibody, human IgG1, V domains shown)
VH: B5 VH with T77S, S83N
VL: DIVMTQSPDSLAVSLGERATINCKSSQSLLNSGNQRNYLTWYQQKPGQPPKKLIYWASTRESGVPDRFSGSGSGTDFTLTISSLQAEDLAVYYCQNNYFYPLTFGQGTKLEIKR
notes: Only positions of reverse mutations are printed; copies: 2 + 2

Each binder was assayed against human CLDN18.1 expressed on cell surfaces (human) (UniProt P56856) (assay: cell-based or functional assay).

Binder	Human IFNγ detected in the supernatants of the culture systems (CAR-T cells with CHO-claduin18.1)
B1	60300
B2	4670
B3	4540

What follows are binders tested against human CLDN18.2 expressed on cell surfaces (human) (UniProt P56856) (assay: cell-based or functional assay).

Binder	Human IFNγ detected in the supernatants of the culture systems (CAR-T cells with CHO-claduin18.2)
B1	79200
B2	75500
B3	78900

These binders were tested against T1, human CLDN18.2 expressed on cell surfaces (human, UniProt P56856-2 1-261) (assay: cell-based or functional assay).

Binder	CDC EC50, BxPC3 cells stably expressing human CLDN18.2 (CCK-8) [nM]	CDC EC50, CHOK1 cells stably expressing human CLDN18.2 (CCK-8) [nM]	CDC EC50, NCI-N87 cells stably expressing human CLDN18.2 (CCK-8) [nM]
B4	28.5	21.3	57.7
B5	12.2	5.2	17.4

Target: T1, human CLDN18.2 expressed on cell …
Assay: cell-based or functional assay
Remark: another data set of the same source

Binder	ADCC reporter EC50 (Jurkat NFAT-luciferase effector cells), BxPC3 target cells [nM]	ADCC reporter EC50 (Jurkat NFAT-luciferase effector cells), CHOK1 target cells [nM]	ADCC reporter EC50 (Jurkat NFAT-luciferase effector cells), NCI-N87 target cells [nM]
B4	0.304	0.589	0.15
B5	0.176	0.712	0.0677

The binders below were run against T2, antigen human CLDN18.2, His-tagged (human, UniProt P56856-2 1-261, limits assumed) (assay: BLI (Fortebio), His-tagged antigen on NTA probe; ratio to 8K13-xiIgG).
T2 construct: Recombinant antigen used in the Fortebio assay (His-tagged, captured on NTA probe); also called His-tagged antigen; not shown: His tag
Experimental: (§1) The binding kinetic parameters of the chimeric antibodies and the humanized antibodies thereof to the antigen human CLDN18.2 were analyzed by a Fortebio (BLITZ pro1.1.0.28) instrument. Before performing the assay, an NTA bioprobe was soaked in PBS for 10 min, and the probe was then placed in PBS containing 100 nM antigen for 300 s to capture the His-tagged antigen. The probe was further subjected to a binding reaction with 100 nM antibody for a binding time of 400 s, and the probe was then transferred to PBS and subjected to a dissociation reaction for 600 s. When the assay was finished, data from which the response value of a blank control had been deducted were fitted to a 1:1 Langmuir binding model using software, and then the kinetic constants for antigen-antibody binding were calculated.

Binder	Koff/Koff(Xi-IgG)
B4	3.5

What follows are binders tested against T2, antigen human CLDN18.2, His-tagged (assay: BLI (Fortebio), His-tagged antigen on NTA probe; ratio to 16K15-xiIgG).
Experimental: as §1

Binder	Koff/Koff(Xi-IgG)
B6	0.14
B5	1.86
B7	1
B8	0.65

What follows are binders tested against T2, antigen human CLDN18.2, His-tagged (assay: SPR (BIAcore), antibody captured by anti-human Fc, antigen as analyte).
Experimental: Referring to the instructions provided in the Human Antibody Capture Kit (cat No. BR-1008-39, Lot 10261753) from GE Healthcare, the analytical channel and the control sample channel on a CM5 sensor chip were first saturated and coupled with the maximum amount of anti-human Fc antibody, then buffers containing anti-human CLDN18.2 chimeric antibodies, humanized antibodies or a control antibody IMAB362 at 7.5 μg/ml were allowed to flow through the analytical channel and uniformly distribute. Finally, antigen samples diluted in gradient (the initial concentration was 20 nM and diluted by 1:3 to get 8 concentrations, and the concentration 0.741 nM was set to be repeated) were allowed to flow through both the analytical channel and the sample channel, and the photoreactions upon the binding of antibody to antigen were measured. Subsequently, the association constant Kon and dissociation constant Koff and affinity constant KD of each antibody were finally obtained by instrument software fitting analysis.

Binder	Kd [nM]	koff [s⁻¹]	kon [M⁻¹ s⁻¹]
B4	28.5	0.00202	70900
B5	9.85	0.000563	57100
B7	13.5	0.00144	107000

Each binder was assayed against T2, antigen human CLDN18.2, His-tagged (assay: BLI (Fortebio), His-tagged antigen on NTA probe, 100 nM antibody, 1:1 fit).
Experimental: as §1

Binder	Kd [nM]	Response	koff [s⁻¹]	kon [M⁻¹ s⁻¹]
B4	1.51	0.133	0.000399	264000
B6	0.0895	0.176	2.15e-05	240000
B5	1.1	0.266	0.000286	259000
B7	0.557	0.261	0.000154	276000
B8	0.535	0.17	0.0001	188000
